# According to PMC10052518:
# Legend:
# [1] = target: hFcRn (human neonatal Fc receptor) (human) (UniProt P55899); experiment: SPR; Bia3000; hFcRn immobilised on CM5 chip (<200 RU); increasing concentrations of antibody injected over 180 s, dissociation 400 s; 25 °C; 50 mM phosphate, 150 mM NaCl, 0.05% P20, pH 7; multi-cycle kinetics, bivalent model fit
# [2] = target: hFcRn (human neonatal Fc receptor) (human) (UniProt P55899); experiment: SPR; bivalent fit, kd2 (second site)
# [3] = target: hFcRn (human neonatal Fc receptor) (human) (UniProt P55899); experiment: SPR; bivalent fit, kd1
# [4] = target: hFcRn (human neonatal Fc receptor) (human) (UniProt P55899); experiment: SPR; Bia3000; hFcRn immobilised on CM5 chip (<200 RU); increasing concentrations of antibody injected over 180 s, dissociation 400 s; 25 °C; 50 mM phosphate, 150 mM NaCl, 0.05% P20, pH 6; multi-cycle kinetics, bivalent model fit
# [5] = target: hFcRn (human neonatal Fc receptor) (human) (UniProt P55899); experiment: SPR; pH 7.0, bivalent fit, kd1
Substance,Kd [1],koff [2],koff [3],Kd [4],other results
A3 (tocilizumab variant M252W/M428K/N434W) (antibody),570 nM,–,–,–,–
B5 (tocilizumab variant T256Y/H285Q/N286D/V308A/N434Y),–,0.000765 s⁻¹,0.0439 s⁻¹,–,–
C7 (tocilizumab variant T256E/N286H/K288E/V308P/L309D/N434Y/Y436K),–,6.52e-05 s⁻¹,0.0053 s⁻¹,–,–
C7 (tocilizumab variant T256E/N286H/K288E/V308P/L309D/N434Y/Y436K) (antibody),160 nM,–,–,34 nM,–
T3 (tocilizumab variant M252Y/T307D/N434Y),–,–,–,–,koff [5]: 0.0263 s⁻¹
T8 (tocilizumab variant M252Y/N286E/T307Q/V308P/Q311A/N434Y/Y436V) (antibody),7.8 nM,–,–,1.3 nM,–

# Now from value to substance, other results behind:
Kd [1],koff [2],koff [3],Kd [4],Substance,other results
620 nM,–,–,45 nM,B5 (tocilizumab variant T256Y/H285Q/N286D/V308A/N434Y) (antibody),–
380 nM,–,–,13 nM,T3 (tocilizumab variant M252Y/T307D/N434Y) (antibody),–
–,0.0383 s⁻¹,0.000658 s⁻¹,–,T8 (tocilizumab variant M252Y/N286E/T307Q/V308P/Q311A/N434Y/Y436V),–
–,–,–,380 nM,Tocilizumab (antibody),–
